Results on one protein are retold here after article PMC5132288, “Identification, Heterologous Expression, and Functional Characterization of Bacillus subtilis YutF, a HAD Superfamily 5'-Nucleotidase with Broad Substrate Specificity” (PLoS ONE, 2016).

Common to all, as to type: biochemical, Bacillus subtilis
Substrate in series [1]: O=[N+]([O-])c1ccc(OP(=O)(O)O)cc1
Description: purified protein. To be noted: 100 mM Tris-HCl pH 8.9, 5 mM MgCl2, 25°C.

Substrate in series [2]: O=c1[nH]c(=O)c2ncn([C@@H]3O[C@H](COP(=O)(O)O)[C@@H](O)[C@H]3O)c2[nH]1
Description: colorimetric inorganic phosphate release, nonlinear regression. The settings on record: 100 mM MES pH 6.0, 5 mM MgCl2, 37°C. An excerpt: (§1) colorimetric inorganic phosphate release, nonlinear regression on Ht-YutF (recombinant YutF, N-terminal hexahistidine tag)

Substrate in series [3]: O=P(O)(O)OC[C@H]1O[C@H](OP(=O)(O)OP(=O)(O)O)[C@H](O)[C@@H]1O
Described as above. To be noted: 100 mM MES pH 6.0, 5 mM MgCl2, 37°C.
From the text: as §1

Substrate in series [4]: Nc1nc2c(ncn2[C@@H]2O[C@H](COP(=O)(O)O)[C@@H](O)[C@H]2O)c(=O)[nH]1
The description is as above. To be noted: 100 mM MES pH 6.0, 5 mM MgCl2, 37°C.
From the text: as §1

B1: Ht-YutF (recombinant YutF, N-terminal hexahistidine tag) (Bacillus subtilis subsp. subtilis str. 168) (protein)
chain: KTYKGYLIDLDGTMYNGTEKIEEACEFVRTLKDRGVPYLFVTNNSSRTPKQVADKLVSFDIPATEEQVFTTSMATAQHIAQQKKDASVYVIGEEGIRQAIEENGLTFGGENADFVVVGIDRSITYEKFAVGCLAIRNGARFISTNGDIAIPTERGLLPGNGSLTSVLTVSTGVQPVFIGKPESIIMEQAMRVLGTDVSETLMVGDNYATDIMAGINAGMDTLLVHTGVTKREHMTDDMEKPTHAIDSLTEWIPYI
The Km is the substrate concentration at which the rate is half of its maximum. The kcat is the number of substrate molecules converted per active site and unit of time at saturation. The term kcat/Km denotes the second-order rate constant that governs catalysis at low substrate concentration. As for B1, the Km in series [1] amounted to 1.64 ± 0.06 mM; in series [2], 1.53 ± 0.11 mM; in series [3] it was 1.27 ± 0.10 mM; in series [4], 6.65 ± 1.26 mM. Moreover, the kcat in series [1] was found to be 61 ± 1 s⁻¹; in series [2], 0.31 ± 0.01 s⁻¹; in series [3], 0.17 ± 0.01 s⁻¹; in series [4] it was 0.06 ± 0.01 s⁻¹. The catalytic efficiency (kcat/Km) came out at 37000 M⁻¹ s⁻¹ in series [1], 210 M⁻¹ s⁻¹ in series [2], 130 M⁻¹ s⁻¹ in series [3] and 9 M⁻¹ s⁻¹ in series [4].
